Laboratory results taken from the nanobody polyreactivity screen of Harvey et al. (2022).

Assay: yeast display, Sf9 membrane polyspecificity reagent, FACS + sequencing; frameworks hold sequencing errors
Summary of the method: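 Sorting gates, low and high (top ~1%), were placed on anti-HA fluorescence to track expression and on streptavidin fluorescence to track reagent binding. A clone's polyreactivity label is taken from the gate it came out of. The reagent was 10% biotinylated, detergent-solubilized Sf9 membrane, applied for 1 hour at 4 °C to galactose-induced yeast display cells.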

Sequence | polyreactivity (PSR sort gate)
QVQLVESGGGLVQAGGSLRLSCAASGRIFRYNAMGWYRQAPGKERELVAAITQSGGNTYYADSVKGRFTISRDNAKNTVYLQMNSLKPEDTAVYYCAAATRQFAGQRYGYWGQGTQVTVSS | high polyreactivity
QVQLVESGGGLVQARGSLRLSCAASGRIFNYNAMGWYRQAPGKERELVAAITSSGGSTYYADSVKGRFTISRDNAKNTVYLQMNSLKPEDTAVYYCNALITYSSDYWGQGTQVTVSS | low polyreactivity
QVQLVESGGGLVQAGGSLRLSCAASGITFYDYAMGWYRPAPGKERELVAAINSGDSTNYADSVKGRFTISRDNAKNTVYLQMNSLKPEDTAVYYCAADRYYYSWYTIWYRERIYYWGQGTQVTVSS | low polyreactivity
QVQLVESGGVLDQAGGSLRLSCAAAGITSPDNVMGWYRKAPGKEFDLVAANSGSGGSTYYADYVQGRFTISRDNAKNSVYLQINILKPEDTAVYYCAADVEYKVFPGDYWGQGTQVTVSS | low polyreactivity
QVQLVESGGGLVQGGSLRLSCAASGFTFPIYVMGWSRHAPGKEMELVASISSVGSTNYADSVKGRFTISRDNSKNTVYLQMNSLKPEDTAVYYCNADDPNSYGGFDYWGQGTQVTVSS | low polyreactivity
QVQLVESGGGLVQAGGSLRLSCAASGLIFYLYTMGWYRQAPGKERELVAAISRSGTITYYADSVKGRFTISRDNAKNSVYLQMNSLKPEDTAVYYCAATYTYKIGTRYDYWGQGTQVNVSS | high polyreactivity
QVQLVESRGGLVQAGGSLRLSCAASGSIFNANAMGWYRQAPGKEREIVAAITRAGGGTYYADSVKGRFTISRVNAKNTVYLQMNRLKPEDTAVYYCAREVFFYASTGQTYGYWGQGTQVTVSS | high polyreactivity
QFQLVESGGGLVQAGGSVRLSCAASGSTFYLYAMGWYRQAPGKERELVAAITYGGGSTYYADSVKGRFTISRDNAKNTVYLQMNSLKPEDTAVYYCAARWLYWPRYNSLVYTHRDSWGQGTQVTVSS | low polyreactivity
QVQLVESGGGLVQAGGSLRLSCAASGLTLYRYAMGWYRQPPGKEREMVAGISWGGGSTYYADSVKGRFTISRDNAKNTVYLQMNSLKPEDTAVYYCAAGRLLYIPRYYYWGQGTQVTVSS | high polyreactivity
QVQLVESGGGLVQAGGSLRLSCAASGSTFVYYAMGWYRQAPGKERELVADISWSGGDTYYADSVKGRFTISRDNAKNTVYLQMNSLKPVDTAVYYCAAEWSTPSYVGFADGFEYWGQGTQVTVSS | low polyreactivity
QVQLVESGGGLVQAGGSLRLSCAASGITFSRYAMGWYRQAPGKERELVAAITWDGGRTYYADSVKGRFTISRDNAKNTVYLQMNSLKPEDTAVYYCAASRYSPVRWVWLYYWGQGTQVTVSS | high polyreactivity
QVQLVESGGGLVQAGGSLRLSCAASGRTFTYYSMGWYRQAPGKERELVAAISSGGRTNYADSVKGRFTISRDNAKNTVYLQMNSLKPEDTAVYYCAADGTTFRNRYYFHRMDFWGQGTQVTVSS | high polyreactivity
QVHLVESGGGLVQAGGSLRLSCAASGSTLGRYAMGWYRQAPGKERELVAAISWRGGSTYYADSVKGRFTISRDNAKNTDYLQMHSLKPEDTAVYYCADTYRFSEYYYWGQGTQVTVSS | high polyreactivity
QVQLVESGGGLVQAGGSLRLSCAASGRIFLTNAMGWYRQAPGKERELVAAITSGGSTYYADSVKGRFTISRDNAKNTVYLQMNSLKPEDTAVYYCNADTDRYWPYEYDYWGQGSQVTVSS | low polyreactivity
QVQLVESGGGLVQAGGSLRISCAASGRNFPNYAMGWYRQAPGKERELVAAITSSGGSTYYADSVKGRFTISRDNAKNTVYLQMNSLKPEDTAVYYCNAGSWIRNDYWGQGTQVTVSS | high polyreactivity
QVQLEESGGGLVQAGGSLRLSCAASGSTFYPYAMGWYIQAPGTERELVAAISSRDGRTYYADSVKGRFTISRDNAKNTVYLQMNSLTPEDTAVYYCAASSFNNGHRYDYWGQGTQVTVSS | high polyreactivity
QVQLVETGGGLVQAGGSLRLSCAASGRTFRWYAMGWYRQAPGKERELVADISSVGSTDYADSVKGRFTISRDNAKNTVYLQMNSLKPEDTAVYYCAADFSPRRYHNRSFGYWGQGTQVTVSS | low polyreactivity
QVQLVESGGGLVQAGGSLRLSCAASGRTIIYNTMGWYRQAPGKEREFVAAINWSGGSTYYADSVKGRFTISRDNAKNTVYLQMNSLKPEDTAVYYCNAEAGYYRPLIYDYWGQGTQVTVSS | low polyreactivity
QVQLVESGGGLVQAGGSLRLSCAASGFTFSYYAMGWYRKAPGKEMELVAAINWNGGSTYYADSVKGRFTISRDNAKNTVYLQMNSLKPEDTAVYYCNARQSYRYTQHGYWGQGTQVTVSS | high polyreactivity
QVQLVESGGGLVQAGGSLRLSCAASGSTFGGYTMGGYRQAPGKERELVADITSSGSTNYADSLKGRFTISRDNAKNSVYLQMNSLKPEDTAVYYCAVRTYPGRFWYWGVDMVYWGQGTQVTVSS | low polyreactivity
QVQLVESGGGLVQAGGSLRLSCAASGLTLAPNAMGWYRQSPGKERELVAAITRSGGDTYYADSVKGRFTISRDTAKNTVYLQMNSLKPEDTAVYYCAADYWFRYGTYTGLTSYYYWGQGTQVTVSS | high polyreactivity
QVQLVESGGGLVQAGGSLRLSCAASGFIFSYYVMGWYRQAPGKERELVAAINESGGRTYYADSVKGRFTISRDNAKNTVYLQMNSLKPEDTAVYYCAASVLNKIQGYRDYYWGQGTQVTVSS | low polyreactivity

Sequence | polyreactivity (PSR sort gate)
QVQLVESGGGLVQAGGSLRLSCAASGFTFRWYDMGWYRQAPGKERELVAAITWRGDNTYYADSVKGRFTISRDNAKNTVYLQMNSLKPEDTAVYYCAAAWPTFISDLSGVDYWGQGTQVTVSS | low polyreactivity
QVQLVESGGGIVQAGGSLRLSCAASGRTLDKYTMGWYRQAPGKERELVASITSGGSTNYADSVKGRFTISRDNAKNTVYLQMNSLKPEDTAVYYCNKRRRVSKLGQGYDYWGQGTQVTVSS | low polyreactivity
QVQLVESGGGLVQAGGSLRLSCAASGRIFNRNAMGWYRQAPGKERELVAAITRGGRTNYADSVKGRFTISRDNAQNTVYLQMNSLKPEDTAVYYCAAAYYGSHGRYDYWVQGTQVTVSS | high polyreactivity
QVQLVESGGGKVQAGGSLRLSCAASGFTFSNAMGWYRQAPGKERELVAAITRIGGSTFYADSVKGRFTISRDNAKNTVYLQLNSLKPEDTAVYSCAADYGLPLYEGYYWGQGTQVTVSS | low polyreactivity
QVQLVESGGGLDQAGGSLRLSCAASGSIFEPYDMGWYRQAPGKERELVASISRGGSTYYADSVKGRFTISRDNAKNTVYLQMNSLKPEDTAVYYCAADPYYYSSGYYYWGQGTQVTVSS | low polyreactivity
QVQLVESGGGLVQAGGSLRLSCAASGIIFVSYDMGWYRQAPGKERELVAAINRGGRTYYADSVKGRFTISRDNAKNTDYLQMNSLKPEDTAVYYCAAQFHFRPFSWTYDYWGQGTQVTVSS | high polyreactivity
QVQLVESGGGLVQAGGSLRLSCAASGSTFTPYAMGWYRQAPGKERELVAAITWRGGSTYYADSVKGRFTISRDNAKNTVYLQMNSLKPEDTAVYYCAAEDYLYFFYAYGYWGQGTQVTVSS | high polyreactivity
QVQLVESGGGLVQAGGSLRLSCAASGLTFRYYTMGWYRQAPGKERELVASITSGGITYYADSVKGRFTISRDNAKNTVYLQMNSLKPEDTAVYYCAKGSYRTTYGALGVKFGYWGQGTKVTVSS | high polyreactivity
QVQLVESGGGLVQAGGSLRLSCAASGRTFFDHALGWYRPAPGKERELVAAITSVGSTYYADSVKGRFTISRDNAKNTVYLQMNSLKPEDTAVYYCAAHRHIHYTDARMDYWGQGTQVTVSS | low polyreactivity
QVQLVESGGGLVQAGGSLRLSCAASGFIFTDYTMGWYRQAPGKERELVAAIDSSGGGTHYADSVKGRFTISRDNAKNTVYLQMNSLKPEDTAVYYCAAADYLIQFWYQYDYWGQGTQVTVSS | low polyreactivity
QVQLVESGGGLVQAGGSLRLSCAASGISFYEYGMGWYRQAPGKERELVAAITFGGGSTYYADSVKGRFTISRDNAKNTVYLQMNSLKPEDTAVYDCAADRVYWGRVQGYYWGQGTQVTVSS | low polyreactivity
QVQLVESRGGLVQAGGSLRLSCAASGLTFVYYAMGWYRQAPGKERELVASIDYSGSSTYYADSVKGRFTISRDNAKNTVYLQMNSLKPEDTAVYYCAATDSGEYWGQGTQVTVSS | low polyreactivity
QVQLVESGGGLVQAGGSLRLSSAASGRIFTVYAMGWYRQAPGKERELVAAITRGGGGTYYADSVKGRFTITRDYAKNTDYLQMNRLKPEDTAVYYCAATHNQVVARYSFNYWGQGTQVTVSS | high polyreactivity
QVQLVESGGGLVQAGGSLRLSCAASGFTFPYNAMGWYRQAPVTERELVAAMSRGGGRTYYADSVKGRFTISRDNAKNTVNLQMNSLKPEDTAVYYCAKSPGQDTPYPYGYWGQGTQETVSS | high polyreactivity
QVQLVESGGGLVQAGGSLRLSCAASGRSYRRNTMGWYRQAPGKERELVAAISNRGTSTYYADSVKGRFTISRDNEKNTVYLLMNSLKPEDTAVYYCAARGVRSYFFPYNYWGQGTQVTVSS | high polyreactivity
QVQLQESGAGLDQAGGSLRLSCAPSGYISDIGTMGWYRQAPGKEREFVATIVVGSTTNYADSVKGRFTISRDNAKNTVYLQPESGRYRGVVLRGWLLAVGKFTYWGQGTQETVSS | low polyreactivity
QVQLVESGGGLVQAGGSLRLSCAASGFTFSPNAMGWYRQAHGKESELVAAIDWSGDRTYYADSVKGRFTISRDNAKKTVYLQINSLKPEDTAVYYCNVVRRSPGDYTYYYWGQGTQVTVSS | low polyreactivity
QVQLVESGGGLVQAGGSLRLSCAASGSTFEDNAMGWYRQAPGKERELVAAITSGGNTYYADSVKGRFTISRDNAMNTVYLQMNSLKPDDTAVYYCNAVPFYYDFDYWGQGTQVTVSS | low polyreactivity
QVQLVESGGGLVQAGGSLRLSCAASGSIFRGYTMGWYRQATGKERELVATISWSGGSTYYADSVKGRFTISRDNAKNTVYLQMNCLKPEDTAVYYCAAVWYLGIPYDYWGQGTQVTVSS | high polyreactivity
QVQLVESGGGLVQAGGSLRLSCAASGSIFYYYAMGWYRQAPGKERELVAAINSGVSTYYADSVKGRFTISRDNAKNTVYLQMNSLKPEDTAVYYCAAPGHNLYGSWFSWTPDTYDYWGQGTQVTVSS | low polyreactivity
QVQLVASGGGLVQSGGSLRLSCAASGFIFAYYAMGWYRQAPGTERELVAAISRGGRPYYADSVKGRFTISRDNAKNTVYFQMNSLKPEDTAVYYCAARRWRRYQSGGSYSGMDHWGQGTQVTVSS | high polyreactivity
